Test results taken from patent US20240269235A1 (Gilead, published 2024).
Where two headings read alike, the source gives them in different places.

What was measured:
[1] = target: T1, trimeric murine IL-2 receptor (IL-2Rα, IL-2Rβ, and IL-2Rγ) on CTLL-2 cells (murine, UniProt P01590 22-268; P16297 27-539; P34902 23-369); test: cell-based or functional assay
T1 sequence (looked up) 1: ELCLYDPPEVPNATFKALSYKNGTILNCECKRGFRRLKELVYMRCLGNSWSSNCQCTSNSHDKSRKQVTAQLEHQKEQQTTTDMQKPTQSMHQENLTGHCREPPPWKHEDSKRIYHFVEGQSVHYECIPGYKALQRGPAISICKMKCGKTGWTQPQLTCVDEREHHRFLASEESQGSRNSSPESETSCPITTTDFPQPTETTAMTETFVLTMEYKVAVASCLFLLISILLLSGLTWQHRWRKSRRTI
T1 sequence (looked up) 2: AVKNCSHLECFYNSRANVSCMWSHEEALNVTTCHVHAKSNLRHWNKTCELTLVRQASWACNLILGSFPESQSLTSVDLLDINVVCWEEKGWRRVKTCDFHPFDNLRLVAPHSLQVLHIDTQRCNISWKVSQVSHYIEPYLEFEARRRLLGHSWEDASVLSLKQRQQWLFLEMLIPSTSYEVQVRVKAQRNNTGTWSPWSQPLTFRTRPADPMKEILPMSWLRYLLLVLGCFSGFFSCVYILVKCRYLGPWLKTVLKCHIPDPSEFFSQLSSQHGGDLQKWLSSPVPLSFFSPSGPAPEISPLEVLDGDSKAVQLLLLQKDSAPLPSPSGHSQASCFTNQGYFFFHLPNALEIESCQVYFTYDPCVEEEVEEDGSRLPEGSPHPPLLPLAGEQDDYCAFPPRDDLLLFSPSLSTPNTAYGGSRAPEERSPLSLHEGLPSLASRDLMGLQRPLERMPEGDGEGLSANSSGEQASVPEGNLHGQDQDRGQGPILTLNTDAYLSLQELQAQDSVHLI
T1 sequence (looked up) 3: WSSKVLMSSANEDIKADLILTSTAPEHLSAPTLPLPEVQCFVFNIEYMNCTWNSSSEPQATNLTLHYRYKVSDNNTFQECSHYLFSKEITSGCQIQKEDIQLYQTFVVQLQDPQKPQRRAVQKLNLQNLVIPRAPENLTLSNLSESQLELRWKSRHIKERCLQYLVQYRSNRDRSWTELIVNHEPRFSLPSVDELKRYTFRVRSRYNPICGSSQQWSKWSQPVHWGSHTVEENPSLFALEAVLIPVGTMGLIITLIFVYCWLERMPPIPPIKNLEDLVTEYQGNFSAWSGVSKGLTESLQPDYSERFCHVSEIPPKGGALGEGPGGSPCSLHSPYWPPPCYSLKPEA

[2] = target: T1, trimeric murine IL-2 receptor (IL-2Rα, …); test: cell-based or functional assay; remark: listed apart in the source
[3] = target: T2, IL-2Rα (recombinant IL-2 receptor α, R&D Systems Cat #: 223-2A/CF), biotinylated (human, UniProt P01589 22-213, limits assumed, biotinylated using sulfo-NHS-LC-LC-Biotin); test: SPR (Biacore), C1 or CM5 chip, biotinylated receptor on neutravidin
T2 construct: Bought reagent; also used here as the IL-2Rα partner of the in-silico analysis of PDB 2B5I (another construct); also called IL-2RA; CD25
T2 sequence (looked up): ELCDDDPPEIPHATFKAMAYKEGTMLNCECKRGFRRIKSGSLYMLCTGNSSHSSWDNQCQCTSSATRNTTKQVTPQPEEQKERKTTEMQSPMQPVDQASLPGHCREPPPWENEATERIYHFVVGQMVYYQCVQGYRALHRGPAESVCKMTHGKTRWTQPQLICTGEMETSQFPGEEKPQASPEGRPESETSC

[4] = target: T3, IL-2Rβ (recombinant IL-2 receptor β, R&D Systems Cat #:224-2B-025/CF), biotinylated (UniProt P14784 27-239, limits assumed, biotinylated using sulfo-NHS-LC-LC-Biotin); test: as above
T3 construct: Bought reagent; also called IL-2RB; CD122
T3 sequence (looked up): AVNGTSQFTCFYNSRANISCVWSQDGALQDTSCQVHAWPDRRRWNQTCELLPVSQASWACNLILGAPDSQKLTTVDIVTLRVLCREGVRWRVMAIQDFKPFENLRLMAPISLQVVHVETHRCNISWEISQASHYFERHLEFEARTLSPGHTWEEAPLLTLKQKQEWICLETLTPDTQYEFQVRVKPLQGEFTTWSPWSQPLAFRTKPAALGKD

[5] = target: T4, IL-2Rβγ heterodimer, custom biotinylated Fc fusion protein (human IL-2Rβ 27-240-Fc-FLAG / human IL-2Rγ … (human, site-specific biotinylation at the AviTag)); test: as above
T4 construct: Extracellular regions fused to IgG1 knob-in-hole Fc subunits with tags; also called IL-2 receptor βγ heterodimer; Fc-IL-2Rβγ
T4 sequence (chain, as listed by the source limits assumed): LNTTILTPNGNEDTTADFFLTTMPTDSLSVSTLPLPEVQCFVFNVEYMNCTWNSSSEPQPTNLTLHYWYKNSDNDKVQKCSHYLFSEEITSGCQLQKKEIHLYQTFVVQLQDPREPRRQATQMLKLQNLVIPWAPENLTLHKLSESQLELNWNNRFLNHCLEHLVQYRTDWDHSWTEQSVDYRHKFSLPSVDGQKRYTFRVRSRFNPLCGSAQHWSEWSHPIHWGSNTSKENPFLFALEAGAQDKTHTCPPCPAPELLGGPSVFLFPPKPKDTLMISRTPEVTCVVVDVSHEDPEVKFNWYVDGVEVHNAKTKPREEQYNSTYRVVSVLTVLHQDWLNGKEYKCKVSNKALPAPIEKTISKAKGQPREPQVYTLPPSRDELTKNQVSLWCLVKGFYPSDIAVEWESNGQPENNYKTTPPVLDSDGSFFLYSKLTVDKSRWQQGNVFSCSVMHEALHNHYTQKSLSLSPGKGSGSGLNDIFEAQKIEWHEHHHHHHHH

B1: Fc-IL-2 heterodimer 117.46 (hIL-2v_Δ1-5_C125S), native IL-2Rα binding interface (Fc fusion)
chain 1: ESKYGPPCPPCPAPEAAGGPSVFLFPPKPKDTLMISRTPEVTCVVVDVSQEDPEVQFNWYVDGVEVHNAKTKPREEQFNSTYRVVSVLTVLHQDWLNGKEYKCKVSNKGLPSSIEKTISKAKGQPREPQVYTLPPSQEEMTKNQVSLWCLVKGFYPSDIAVEWESNGQPENNYKTTPPVLDSDGSFFLYSRLTVDKSRWQEGNVFSCSVMHEALHNHYTQKSLSLSLGGGGGSGGGGSGGGGSGGGGSSTKKTQLQLEHLLLDLQMILNGINNYKNPKLTRMLTFKFYMPKKATELKHLQCLEEELKPLEEVLNLAQSKNFHLRPRDLISNINVIVLELKGSETTFMCEYADETATIVEFLNRWITFSQSIISTLT
chain 2: ESKYGPPCPPCPAPEAAGGPSVFLFPPKPKDTLMISRTPEVTCVVVDVSQEDPEVQFNWYVDGVEVHNAKTKPREEQFNSTYRVVSVLTVLHQDWLNGKEYKCKVSNKGLPSSIEKTISKAKGQPREPQVYTLPPSQEEMTKNQVSLSCAVKGFYPSDIAVEWESNGQPENNYKTTPPVLDSDGSFFLVSRLTVDKSRWQEGNVFSCSVMHEALHNRFTQKSLSLSLGK
notes: hIgG4 knob-in-hole Fc heterodimer
- STAT5 activation of CTLL-2 cells, EC50 [1]: 0.002 nM
- STAT5 activation of CTLL-2 cells, EC50 [2]: 0.003 nM
- Kd [3]: 15 nM
- Kd [4]: 7000 nM
- Kd [5]: 0.142 nM
